Data taken from publication doi:10.1101/504373, “Pyrophosphate modulates stress responses via SUMOylation” (bioRxiv, 2018).

Target: the molecule itself
Test: immunoblot after SDS-PAGE of extracts made without DTT; total seedling protein extracted in the presence of NEM to inhibit deSUMOylation; anti-ICE1; both bands absent in ice1-2; monomer (50kD) only with DTT (5 mM) and without NEM

B1: INDUCER OF CBF EXPRESSION 1 (ICE1) (natural protein, UniProt Q9LSE2 1-494, looked up)
chain: MGLDGNNGGGVWLNGGGGEREENEEGSWGRNQEDGSSQFKPMLEGDWFSSNQPHPQDLQMLQNQPDFRYFGGFPFNPNDNLLLQHSIDSSSSCSPSQAFSLDPSQQNQFLSTNNNKGCLLNVPSSANPFDNAFEFGSESGFLNQIHAPISMGFGSLTQLGNRDLSSVPDFLSARSLLAPESNNNNTMLCGGFTAPLELEGFGSPANGGFVGNRAKVLKPLEVLASSGAQPTLFQKRAAMRQSSGSKMGNSESSGMRRFSDDGDMDETGIEVSGLNYESDEINESGKAAESVQIGGGGKGKKKGMPAKNLMAERRRRKKLNDRLYMLRSVVPKISKMDRASILGDAIDYLKELLQRINDLHNELESTPPGSLPPTSSSFHPLTPTPQTLSCRVKEELCPSSLPSPKGQQARVEVRLREGRAVNIHMFCGRRPGLLLATMKALDNLGLDVQQAVISCFNGFALDVFRAEQCQEGQEILPDQIKAVLFDTAGYAGMI
notes: Two bands were seen, a non-modified (100kD) and a modified (130kD) dimer; source: endogenous, total protein extract of liquid grown Col-0 seedlings
stoichiometry N: 2
